Target: the molecule itself
Experiment: SEC

B1: His-tagged RsrI N6-adenine DNA methyltransferase (M.RsrI), wild type (enzyme, UniProt P14751 1-319, looked up)
chain: MANRSHHNAGHRAMNALRKSGQKHSSESQLGSSEIGTTRHVYDVCDCLDTLAKLPDDSVQLIICDPPYNIMLADWDDHMDYIGWAKRWLAEAERVLSPTGSIAIFGGLQYQGEAGSGDLISIISHMRQNSKMLLANLIIWNYPNGMSAQRFFANRHEEIAWFAKTKKYFFDLDAVREPYDEETKAAYMKDKRLNPESVEKGRNPTNVWRMSRLNGNSLERVGHPTQKPAAVIERLVRALSHPGSTVLDFFAGSGVTARVAIQEGRNSICTDAAPVFKEYYQKQLTFLQDDGLIDKARSYEIVEGAANFGAALQRGDVAS
For B1, the “stoichiometry N” value was 2.
